Experimental data taken from publication PMC6250423, “Molecular mechanisms that stabilize short term synaptic plasticity during presynaptic homeostatic plasticity” (eLife, 2018).

What was measured:
[1] = target: T1, MBP-Rop^G11 (D45N) (Drosophila melanogaster, UniProt Q07327 1-597, D45N); experiment: pull-down; GST-syx1A^ΔC (2 ug) bound to GST bind resin, 1 hr at 4°C with MBP-Rop or MBP-Rop^G11 at 0-6 uM in NP40 buffer (1% NP-40, 150 mM NaCl, 2 mM EDTA, phosphate); SDS-PAGE, Coomassie, fraction bound quantified in ImageJ, Kd from a dose response curve fit (Prism 6); n = 2; settings: both partners purified
T1 construct: Rop (Ras opposite, Unc-18 orthologue), Drosophila melanogaster; PMAL-Rop with the point mutation of the Rop^G11 allele (Asp45 to Asn; nucleotide G133A) made by site-directed mutagenesis; Same construct as m1 with D45N; the mutation is that of the Rop^G11 allele of Harrison et al., 1994; also called recombinant Rop^G11 mutant protein; source: Rosetta cells (Novagen), purified (amylose resin, …)

[2] = target: T2, MBP-Rop (recombinant wild-type Rop, Drosophila Unc-18) (Drosophila melanogaster, UniProt Q07327 1-597); experiment: as above; settings: both partners purified
T2 construct: Rop (Ras opposite, Unc-18 orthologue), Drosophila melanogaster; cDNA SD04216 amplified with primers from the start ATG to the stop codon and cloned into pMAL-c5E; Expressed from pMAL-c5E (NEB N8110); printed size of the fusion 110 kDa; also called MBP-Rop^WT; Ras opposite; source: Rosetta cells (Novagen), purified (amylose resin, eluted with maltose)
T2 sequence (Q07327 whole entry, the tested form may be a part): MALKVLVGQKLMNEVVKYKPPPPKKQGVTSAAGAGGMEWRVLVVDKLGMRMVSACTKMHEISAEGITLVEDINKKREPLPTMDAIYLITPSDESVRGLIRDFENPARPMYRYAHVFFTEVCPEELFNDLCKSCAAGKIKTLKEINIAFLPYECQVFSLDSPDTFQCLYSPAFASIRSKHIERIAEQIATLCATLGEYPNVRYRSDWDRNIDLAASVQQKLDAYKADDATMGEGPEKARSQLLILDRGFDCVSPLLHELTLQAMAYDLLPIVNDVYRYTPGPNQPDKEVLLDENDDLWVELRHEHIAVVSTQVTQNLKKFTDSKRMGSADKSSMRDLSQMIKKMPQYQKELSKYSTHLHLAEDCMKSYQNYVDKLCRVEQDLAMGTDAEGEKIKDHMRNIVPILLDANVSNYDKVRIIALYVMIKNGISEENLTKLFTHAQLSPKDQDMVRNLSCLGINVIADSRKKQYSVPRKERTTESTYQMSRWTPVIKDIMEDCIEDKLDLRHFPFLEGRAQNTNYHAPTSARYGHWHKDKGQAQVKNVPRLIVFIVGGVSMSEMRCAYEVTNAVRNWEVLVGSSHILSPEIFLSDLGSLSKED

T1 sequence (Q07327 whole entry D45N): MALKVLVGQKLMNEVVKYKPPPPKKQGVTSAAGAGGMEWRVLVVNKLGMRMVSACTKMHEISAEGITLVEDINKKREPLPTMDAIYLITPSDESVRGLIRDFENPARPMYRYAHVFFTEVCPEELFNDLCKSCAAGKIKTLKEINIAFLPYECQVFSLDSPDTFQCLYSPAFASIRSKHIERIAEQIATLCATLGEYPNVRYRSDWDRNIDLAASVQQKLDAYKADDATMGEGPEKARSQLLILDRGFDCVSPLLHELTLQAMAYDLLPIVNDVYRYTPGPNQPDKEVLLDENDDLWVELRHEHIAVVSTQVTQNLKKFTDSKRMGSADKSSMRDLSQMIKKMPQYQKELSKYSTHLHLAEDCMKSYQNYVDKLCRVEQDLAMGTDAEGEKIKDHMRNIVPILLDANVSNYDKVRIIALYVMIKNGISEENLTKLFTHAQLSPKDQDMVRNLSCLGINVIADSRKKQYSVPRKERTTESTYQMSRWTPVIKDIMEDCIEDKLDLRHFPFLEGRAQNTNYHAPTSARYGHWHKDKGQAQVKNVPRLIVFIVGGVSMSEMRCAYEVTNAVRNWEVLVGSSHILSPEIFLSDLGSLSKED

Kd [2]: 0.4 µM
B1: GST-syx1A^ΔC (Syntaxin1A, amino acids 1-268) (domain or fragment, Drosophila melanogaster, UniProt Q24547 1-268, looked up)
chain: MTKDRLAALHAAQSDDEEETEVAVNVDGHDSYMDDFFAQVEEIRGMIDKVQDNVEEVKKKHSAILSAPQTDEKTKQELEDLMADIKKNANRVRGKLKGIEQNIEQEEQQNKSSADLRIRKTQHSTLSRKFVEVMTEYNRTQTDYRERCKGRIQRQLEITGRPTNDDELEKMLEEGNSSVFTQGIIMETQQAKQTLADIEARHQDIMKLETSIKELHDMFMDMAMLVESQGEMIDRIEYHVEHAMDYVQTATQDTKKALKYQSKARRKK
notes: Syntaxin 1A, Drosophila melanogaster, amino acids 1-268; Expressed from pGEX-4T1; printed size of the fusion 60 kDa; The nucleotide change A802T would turn codon 268 into a stop, so the chain may end at residue 267 rather than 268; also called recombinant Syntaxin1A
Kd [1]: 36.1 µM
